Laboratory results taken from patent publication US20240279356A1 (Xencor, published 2024).

What was measured:
[1] = target: T1, human MSLN antigen (human, UniProt Q13421 296-580, limits assumed); assay: Octet BLI on human MSLN antigen (Example 2B(a)); KD quoted in the FIG. 35 legend
T1 construct: Soluble antigen for BLI; also called Mesothelin; MESO
Source text: (§1) Variants of MESO-C were engineered by introducing point substitutions into the variable heavy region (VH) and the variable light region (VL) to generate 11 VH variants and 16 VL variants (sequences for which are depicted in FIG. 18 as H1.1-H1.13 and in FIG. 19 as L1.1-L1.18). An additional 4 VL variants were generated by combining useful point substitutions (sequences for which are depicted in FIG. 19 as L1.19-L1.22). WT and variant variable heavy regions were paired with WT and variant variable light regions to generate variant variable regions (Fvs) which were produced in the context of anti-MSLN×anti-CD3 bispecific antibodies. The bispecific antibodies were screened for MSLN binding affinity using Octet®, a BioLayer Interferometry (BLI)-based method. Experimental steps for Octet® generally include the following: Immobilization (capture of ligand to a biosensor); Association (dipping of ligand-coated biosensors into wells containing the analyte); and Dissociation (returning of biosensors to well containing buffer). In an initial screening, anti-human Fc sensors were used to capture the bispecific mAbs and dipped into human MSLN antigen (one concentration to screen large library). The resulting dissociation constant of illustrative variants (KD), association rate (kₐ), dissociation rate (kd), as well as sensorgram response are depicted in FIG. 20. In further screening of favorite variants identified in the initial screen (and combination variants), bispecific mAbs were dipped into multiple concentrations of human MSLN antigen, data for which are depicted in FIG. 21 (from various screens).

[2] = target: T2, MSLN on OVCAR8 (MSLN^high) and other cancer cell lines (UniProt Q13421 296-598); assay: flow cytometry on OVCAR8 cells, detected with A647-labelled anti-human Fc mAb
T2 construct: whole, on cells; Endogenous surface MSLN; also called MSLN^high OVCAR8 cells; MSLN^low SKOV3 and HT29 cells
T2 sequence (Q13421 other isoform, or with tags, fused parts or gaps limits assumed): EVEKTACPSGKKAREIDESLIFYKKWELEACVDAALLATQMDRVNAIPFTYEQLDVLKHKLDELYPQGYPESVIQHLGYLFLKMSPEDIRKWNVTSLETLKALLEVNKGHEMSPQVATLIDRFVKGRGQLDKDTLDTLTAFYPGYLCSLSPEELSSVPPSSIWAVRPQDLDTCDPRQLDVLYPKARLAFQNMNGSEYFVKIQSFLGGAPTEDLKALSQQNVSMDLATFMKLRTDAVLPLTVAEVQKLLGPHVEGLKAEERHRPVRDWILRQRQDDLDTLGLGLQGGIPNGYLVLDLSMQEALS
Experimental: Next, the effect of MSLN binding affinity was investigated. 100,000 OVCAR8 (MSLN^high) cells were treated with the indicated concentrations of the indicated test articles. […] Further, XENP32852 and XENP32853 which differ only in CD3 binding affinity have identical binding to OVCAR8 cells confirming that avid binding is due to the MSLN binding domain.

[3] = target: T1, human MSLN antigen; assay: Octet BLI; bsAb on anti-human Fc sensor, human MSLN as analyte, one concentration
Source text: as §1

[4] = target: T3, cyno MSLN (Macaca fascicularis (cynomolgus)); assay: Octet BLI; bsAb on anti-human Fc sensor, cyno MSLN as analyte, one concentration
T3 construct: soluble antigen for Octet; also called cynomolgus MSLN

[5] = target: T1, human MSLN antigen; assay: Octet BLI; bsAb on anti-human Fc sensor, human MSLN as analyte, several concentrations
Source text: as §1

T1 sequence (Q13421 other isoform, or with tags, fused parts or gaps limits assumed): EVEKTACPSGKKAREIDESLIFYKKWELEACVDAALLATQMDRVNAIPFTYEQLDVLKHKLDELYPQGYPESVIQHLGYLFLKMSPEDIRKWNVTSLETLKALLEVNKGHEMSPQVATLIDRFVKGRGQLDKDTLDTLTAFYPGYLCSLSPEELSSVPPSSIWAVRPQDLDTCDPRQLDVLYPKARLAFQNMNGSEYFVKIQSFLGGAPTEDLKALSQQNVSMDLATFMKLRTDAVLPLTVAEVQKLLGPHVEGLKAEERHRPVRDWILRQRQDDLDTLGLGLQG

B1: XENP31697 (bispecific antibody)
heavy: QVQLVQSGAEVKKPGASVKVSCKASGYTFTSYWMHWVRQAPGQGLEWMGMIHPNSDNTIYYEKFQGRVTMTVDKSISTAYMELSRLRSDDTAVYYCAIIITPVVPKFDYWGQGTLVTVSSASTKGPSVFPLAPSSKSTSGGTAALGCLVKDYFPEPVTVSWNSGALTSGVHTFPAVLQSSGLYSLSSVVTVPSSSLGTQTYICNVNHKPSDTKVDKKVEPKSCDKTHTCPPCPAPPVAGPSVFLFPPKPKDTLMISRTPEVTCVVVDVKHEDPEVKFNWYVDGVEVHNAKTKPREEEYNSTYRVVSVLTVLHQDWLNGKEYKCKVSNKALPAPIEKTISKAKGQPREPQVYTLPPSREEMTKNQVSLTCDVSGFYPSDIAVEWESDGQPENNYKTTPPVLDSDGSFFLYSKLTVDKSRWEQGDVFSCSVMHEALHNHYTQKSLSLSPGK
scFv-Fc: not shown
light: DIVMTQSPDSLAVSLGERATINCKASHDVGTSVAWYQQKPGQSPKLLIYWASTRHTGVPDRFTGSGSGTDFTLTISSLQAEDVAVYFCQQYSSYPLTFGAGTKLEIKRTVAAPSVFIFPPSDEQLKSGTASVVCLLNNFYPREAKVQWKVDNALQSGNSQESVTEQDSKDSTYSLSSTLTLSKADYEKHKVYACEVTHQGLSSPVTKSFNRGEC
notes: 1+1 Fab-scFv-Fc anti-MSLN x anti-CD3
Q: Which Kd [1] does the source give for B1 here?
A: 0.28 nM

Q: And the “EC50 (read off the curve)” value [2]?
A: ~0.07 µg/mL

B2: XENP32563 (bispecific antibody)
heavy: QVQLVQSGAEVKKPGASVKVSCKASGYTFTSYWMHWVRQAPGQGLEWMGMIHPNSDNTIYYEKFQGRVTMTVDKSISTAYMELSRLRSDDTAVYYCAIIITPVVPKFDYWGQGTLVTVSSASTKGPSVFPLAPSSKSTSGGTAALGCLVKDYFPEPVTVSWNSGALTSGVHTFPAVLQSSGLYSLSSVVTVPSSSLGTQTYICNVNHKPSDTKVDKKVEPKSCDKTHTCPPCPAPPVAGPSVFLFPPKPKDTLMISRTPEVTCVVVDVKHEDPEVKFNWYVDGVEVHNAKTKPREEEYNSTYRVVSVLTVLHQDWLNGKEYKCKVSNKALPAPIEKTISKAKGQPREPQVYTLPPSREEMTKNQVSLTCDVSGFYPSDIAVEWESDGQPENNYKTTPPVLDSDGSFFLYSKLTVDKSRWEQGDVFSCSVMHEALHNHYTQKSLSLSPGK
scFv-Fc: not shown
light: DIVMTQSPDSLAVSLGERATINCKASHDVGTYVAWYQQKPGQSPKLLIYWASTRHTGVPDRFTGSGSGTDFTLTISSLQAEDVAVYFCQQYSSYPLTFGAGTKLEIKRTVAAPSVFIFPPSDEQLKSGTASVVCLLNNFYPREAKVQWKVDNALQSGNSQESVTEQDSKDSTYSLSSTLTLSKADYEKHKVYACEVTHQGLSSPVTKSFNRGEC
notes: 1+1 Fab-scFv-Fc
Q: For B2, which Response [3] is on record?
A: 0.898

Q: And the koff [3]?
A: 0.00672 s⁻¹

Q: And the kon [3]?
A: 527000 M⁻¹ s⁻¹

Q: What about the Kd [4] of the same binder?
A: 13.1 nM

Q: And the Response [4]?
A: 0.817

Q: And the koff [4]?
A: 0.00713 s⁻¹

Q: What about the kon [4] of the same binder?
A: 543000 M⁻¹ s⁻¹

Q: And the Kd [1]?
A: ~12.8 nM

B3: XENP32937 (bispecific antibody)
heavy: QVQLVQSGAEVKKPGASVKVSCKASGYTFTSYWMHWVRQAPGQGLEWMGMIHPNSDNTIYYQKFQGRVTMTVDKSISTAYMELSRLRSDDTAVYYCAIIITPVVPKFDYWGQGTLVTVSSASTKGPSVFPLAPSSKSTSGGTAALGCLVKDYFPEPVTVSWNSGALTSGVHTFPAVLQSSGLYSLSSVVTVPSSSLGTQTYICNVNHKPSDTKVDKKVEPKSCDKTHTCPPCPAPPVAGPSVFLFPPKPKDTLMISRTPEVTCVVVDVKHEDPEVKFNWYVDGVEVHNAKTKPREEEYNSTYRVVSVLTVLHQDWLNGKEYKCKVSNKALPAPIEKTISKAKGQPREPQVYTLPPSREEMTKNQVSLTCDVSGFYPSDIAVEWESDGQPENNYKTTPPVLDSDGSFFLYSKLTVDKSRWEQGDVFSCSVMHEALHNHYTQKSLSLSPGK
scFv-Fc: not shown
light: DIVMTQSPDSLAVSLGERATINCKASHDVGTSVAWYQQKPGQSPKLLIYWASTRHTGVPDRFTGSGSGTDFTLTISSLQAEDVAVYFCQQYYSYPLTFGAGTKLEIKRTVAAPSVFIFPPSDEQLKSGTASVVCLLNNFYPREAKVQWKVDNALQSGNSQESVTEQDSKDSTYSLSSTLTLSKADYEKHKVYACEVTHQGLSSPVTKSFNRGEC
notes: 1+1 Fab-scFv-Fc
Q: For B3, which Response [5] is on record?
A: 0.183

Q: And the koff [5]?
A: 0.00822 s⁻¹

Q: What about the kon [5] of the same binder?
A: 803000 M⁻¹ s⁻¹

Q: What about the Kd [1] of the same binder?
A: 10.2 nM

B4: XENP32947 (bispecific antibody)
heavy 1: QVQLVQSGAEVKKPGASVKVSCKASGYTFTSYWMHWVRQAPGQGLEWMGWIHPNSDNTIYYEKFQGRVTMTVDKSISTAYMELSRLRSDDTAVYYCAIIITPVVPKFDYWGQGTLVTVSSASTKGPSVFPLAPSSKSTSGGTAALGCLVKDYFPEPVTVSWNSGALTSGVHTFPAVLQSSGLYSLSSVVTVPSSSLGTQTYICNVNHKPSDTKVDKKVEPKSCDKTHTCPPCPAPPVAGPSVFLFPPKPKDTLMISRTPEVTCVVVDVKHEDPEVKFNWYVDGVEVHNAKTKPREEEYNSTYRVVSVLTVLHQDWLNGKEYKCKVSNKALPAPIEKTISKAKGQPREPQVYTLPPSREEMTKNQVSLTCDVSGFYPSDIAVEWESDGQPENNYKTTPPVLDSDGSFFLYSKLTVDKSRWEQGDVFSCSVMHEALHNHYTQKSLSLSPGK
heavy 2: QVQLVQSGAEVKKPGASVKVSCKASGYTFTSYWMHWVRQAPGQGLEWMGWIHPNSDNTIYYEKFQGRVTMTVDKSISTAYMELSRLRSDDTAVYYCAIIITPVVPKFDYWGQGTLVTVSSASTKGPSVFPLAPSSKSTSGGTAALGCLVKDYFPEPVTVSWNSGALTSGVHTFPAVLQSSGLYSLSSVVTVPSSSLGTQTYICNVNHKPSNTKVDKKVEPKSCGGGGSGGGGSQAVVTQEPSLTVSPGGTVTLTCGSSTGAVTTSNYANWVQQKPGKSPRGLIGGTNKRAPGVPARFSGSLLGGKAALTISGAQPEDEADYYCALWYSNHWVFGGGTKLTVLGKPGSGKPGSGKPGSGKPGSEVQLVESGGGLVQPGGSLRLSCAASGFTFSTYAMNWVRQAPGKGLEWVGRIRSKANNYATYYADSVKGRFTISRDDSKNTLYLQMNSLRAEDTAVYYCVRHGNFGDSYVSWFAYWGQGTLVTVSSGGGGSGGGGSKTHTCPPCPAPPVAGPSVFLFPPKPKDTLMISRTPEVTCVVVDVKHEDPEVKFNWYVDGVEVHNAKTKPREEQYNSTYRVVSVLTVLHQDWLNGKEYKCKVSNKALPAPIEKTISKAKGQPREPQVYTLPPSREQMTKNQVKLTCLVKGFYPSDIAVEWESNGQPENNYKTTPPVLDSDGSFFLYSKLTVDKSRWQQGNVFSCSVMHEALHNHYTQKSLSLSPGK
light: DIVMTQSPDSLAVSLGERATINCKASHDVGTSVAWYQQKPGQSPKLLIYWASTRHTGVPDRFTGSGSGTDFTLTISSLQAEDVAVYFCQQYSSYPLTFGAGTKLEIKRTVAAPSVFIFPPSDEQLKSGTASVVCLLNNFYPREAKVQWKVDNALQSGNSQESVTEQDSKDSTYSLSSTLTLSKADYEKHKVYACEVTHQGLSSPVTKSFNRGEC
notes: 2+1 Fab2-scFv-Fc; copies: 1 + 1 + 2
Q: How did the Kd [1] turn out when B4 was run?
A: 9.2 nM

B5: XENP32948 (bispecific antibody)
heavy: QVQLVQSGAEVKKPGASVKVSCKASGYTFTSYWMHWVRQAPGQGLEWMGMIHPNSDNTIYYQKFQGRVTMTVDKSISTAYMELSRLRSDDTAVYYCAIIITPVVPKFDYWGQGTLVTVSSASTKGPSVFPLAPSSKSTSGGTAALGCLVKDYFPEPVTVSWNSGALTSGVHTFPAVLQSSGLYSLSSVVTVPSSSLGTQTYICNVNHKPSDTKVDKKVEPKSCDKTHTCPPCPAPPVAGPSVFLFPPKPKDTLMISRTPEVTCVVVDVKHEDPEVKFNWYVDGVEVHNAKTKPREEEYNSTYRVVSVLTVLHQDWLNGKEYKCKVSNKALPAPIEKTISKAKGQPREPQVYTLPPSREEMTKNQVSLTCDVSGFYPSDIAVEWESDGQPENNYKTTPPVLDSDGSFFLYSKLTVDKSRWEQGDVFSCSVMHEALHNHYTQKSLSLSPGK
Fab-scFv-Fc: QVQLVQSGAEVKKPGASVKVSCKASGYTFTSYWMHWVRQAPGQGLEWMGMIHPNSDNTIYYQKFQGRVTMTVDKSISTAYMELSRLRSDDTAVYYCAIIITPVVPKFDYWGQGTLVTVSSASTKGPSVFPLAPSSKSTSGGTAALGCLVKDYFPEPVTVSWNSGALTSGVHTFPAVLQSSGLYSLSSVVTVPSSSLGTQTYICNVNHKPSNTKVDKKVEPKSCGGGGSGGGGSQAVVTQEPSLTVSPGGTVTLTCGSSTGAVTTSNYANWVQQKPGKSPRGLIGGTNKRAPGVPARFSGSLLGGKAALTISGAQPEDEADYYCALWYSNHWVFGGGTKLTVLGKPGSGKPGSGKPGSGKPGSEVQLVESGGGLVQPGGSLRLSCAASGFTFSTYAMNWVRQAPGKGLEWVGRIRSKANNYATYYADSVKGRFTISRDDSKNTLYLQMNSLRAEDTAVYYCVRHGNFGDSYVSWFAYWGQGTLVTVSSGGGGSGGGGSKTHTCPPCPAPPVAGPSVFLFPPKPKDTLMISRTPEVTCVVVDVKHEDPEVKFNWYVDGVEVHNAKTKPREEQYNSTYRVVSVLTVLHQDWLNGKEYKCKVSNKALPAPIEKTISKAKGQPREPQVYTLPPSREQMTKNQVKLTCLVKGFYPSDIAVEWESNGQPENNYKTTPPVLDSDGSFFLYSKLTVDKSRWQQGNVFSCSVMHEALHNHYTQKSLSLSPGK
light: DIVMTQSPDSLAVSLGERATINCKASHDVGTSVAWYQQKPGQSPKLLIYWASTRHTGVPDRFTGSGSGTDFTLTISSLQAEDVAVYFCQQYYSYPLTFGAGTKLEIKRTVAAPSVFIFPPSDEQLKSGTASVVCLLNNFYPREAKVQWKVDNALQSGNSQESVTEQDSKDSTYSLSSTLTLSKADYEKHKVYACEVTHQGLSSPVTKSFNRGEC
notes: 2+1 Fab2-scFv-Fc
Q: For B5, which Kd [1] is on record?
A: 10.2 nM
